Reference: IntAct's records for PubMed 31515488

B1: "N-acyl-aromatic-L-amino acid amidohydrolase (carboxylate-forming)" (Homo sapiens), Q96HD9 (parent)
chain: MCSLPVPREPLRRVAVTGGTHGNEMSGVYLARHWLHAPAELQRASFSAVPVLANPAATSGCRRYVDHDLNRTFTSSFLNSRPTPDDPYEVTRARELNQLLGPKASGQAFDFVLDLHNTTANMGTCLIAKSSHEVFAMHLCRHLQLQYPELSCQVFLYQRSGEESYNLDSVAKNGLGLELGPQPQGVLRADIFSRMRTLVATVLDFIELFNQGTAFPAFEMEAYRPVGVVDFPRTEAGHLAGTVHPQLQDRDFQPLQPGAPIFQMFSGEDLLYEGESTVYPVFINEAAYYEKGVAFVQTEKFTFTVPAMPALTPAPSPAS
partner: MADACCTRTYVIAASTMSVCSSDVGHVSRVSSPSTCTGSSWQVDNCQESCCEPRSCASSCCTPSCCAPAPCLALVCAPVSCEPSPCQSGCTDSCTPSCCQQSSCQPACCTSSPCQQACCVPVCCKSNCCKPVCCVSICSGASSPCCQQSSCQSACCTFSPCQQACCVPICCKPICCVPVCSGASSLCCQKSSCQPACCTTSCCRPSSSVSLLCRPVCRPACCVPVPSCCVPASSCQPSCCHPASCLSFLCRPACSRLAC
B2: Serine/threonine-protein phosphatase 2A activator (Homo sapiens), Q15257 (parent)
chain: MAEGERQPPPDSSEEAPPATQNFIIPKKEIHTVPDMGKWKRSQAYADYIGFILTLNEGVKGKKLTFEYRVSEMWNEVHEEKEQAAKQSVSCDECIPLPRAGHCAPSEAIEKLVALLNTLDRWIDETPPVDQPSRFGNKAYRTWYAKLDEEAENLVATVVPTHLAAAVPEVAVYLKESVGNSTRIDYGTGHEAAFAAFLCCLCKIGVLRVDDQIAIVFKVFNRYLEVMRKLQKTYRMEPAGSQGVWGLDDFQFLPFIWGSSQLIDHPYLEPRHFVDEKAVNENHKDYMFLECILFITEMKTGPFAEHSNQLWNISAVPSWSKVNQGLIRMYKAECLEKFPVIQHFKFGSLLPIHPVTSG
B3: Proteasome subunit beta type-1 (Homo sapiens), P20618 (parent)
chain: MLSSTAMYSAPGRDLGMEPHRAAGPLQLRFSPYVFNGGTILAIAGEDFAIVASDTRLSEGFSIHTRDSPKCYKLTDKTVIGCSGFHGDCLTLTKIIEARLKMYKHSNNKAMTTGAIAAMLSTILYSRRFFPYYVYNIIGGLDEEGKGAVYSFDPVGSYQRDSFKAGGSASAMLQPLLDNQVGFKNMQNVEHVPLSLDRAMRLVKDVFISAAERDVYTGDALRICIVTKEGIREETVSLRKD
partner: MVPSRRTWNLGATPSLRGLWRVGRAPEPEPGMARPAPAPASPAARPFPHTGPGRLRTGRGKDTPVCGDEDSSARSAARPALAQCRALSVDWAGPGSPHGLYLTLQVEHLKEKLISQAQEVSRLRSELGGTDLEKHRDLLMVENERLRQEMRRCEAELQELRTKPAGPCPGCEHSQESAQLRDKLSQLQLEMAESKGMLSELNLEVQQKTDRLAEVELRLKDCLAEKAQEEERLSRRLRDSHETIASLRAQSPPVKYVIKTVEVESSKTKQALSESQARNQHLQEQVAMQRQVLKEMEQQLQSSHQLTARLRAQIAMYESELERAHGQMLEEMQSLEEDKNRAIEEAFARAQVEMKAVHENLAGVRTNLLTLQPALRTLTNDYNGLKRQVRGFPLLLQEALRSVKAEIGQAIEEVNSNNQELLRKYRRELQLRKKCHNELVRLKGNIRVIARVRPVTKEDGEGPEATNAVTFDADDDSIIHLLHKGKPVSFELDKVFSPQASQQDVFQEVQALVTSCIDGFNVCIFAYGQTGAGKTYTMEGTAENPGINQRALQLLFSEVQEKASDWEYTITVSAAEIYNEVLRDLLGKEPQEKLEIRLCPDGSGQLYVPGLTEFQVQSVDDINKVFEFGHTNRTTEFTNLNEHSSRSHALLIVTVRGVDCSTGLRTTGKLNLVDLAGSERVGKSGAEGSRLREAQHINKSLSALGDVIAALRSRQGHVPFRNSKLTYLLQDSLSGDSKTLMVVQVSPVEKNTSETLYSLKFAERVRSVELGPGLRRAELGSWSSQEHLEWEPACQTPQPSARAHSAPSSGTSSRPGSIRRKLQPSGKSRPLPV
B4: Protein DBF4 homolog B (Homo sapiens), Q8NFT6 (parent)
chain: MSEPGKGDDCLELESSMAESRLRAPDLGVSRCLGKCQKNSPGARKHPFSGKSFYLDLPAGKNLQFLTGAIQQLGGVIEGFLSKEVSYIVSSRREVKAESSGKSHRGCPSPSPSEVRVETSAMVDPKGSHPRPSRKPVDSVPLSRGKELLQKAIRNQGSISGGGSGGSSSLLTNARSWGVRILHVDEMMMHVQQLSLASLCVKKQQPKKPEGTCPAAESRTRKVARLKAPFLKIEDESRKFRPFHHQFKSFPEISFLGPKDASPFEAPTTLGSMHHTRESKDGEPSPRSAAHTMPRRKKGYCECCQEAFEELHVHLQSAQHRSFALEAHLYAEVDRIIAQLSHSFADIPFQAGLPRWSGSPASDCDPLCPETLHPHQPSHPRAASPRIRKEDSCQASVTQGRAAGQQRWTESLDGVMGPPASHTCVSATTLLPALPKGSREQGCLCPCPASFTQSHLVTSLALLPGEWSPAEDMPLHPSQENSFAPADIPVKGPLLFPEARPWLMSARCWVRPFPFVTWGCLIPHDTTPLHEEVSPCPCLRLGYLYLLLTQSLWCRVRVPSLSTAGPIPRTSHPCTLAFPSYLNDHDLGHLCQAKPQGWNTPQPFLHCGFLAVDSG
partner: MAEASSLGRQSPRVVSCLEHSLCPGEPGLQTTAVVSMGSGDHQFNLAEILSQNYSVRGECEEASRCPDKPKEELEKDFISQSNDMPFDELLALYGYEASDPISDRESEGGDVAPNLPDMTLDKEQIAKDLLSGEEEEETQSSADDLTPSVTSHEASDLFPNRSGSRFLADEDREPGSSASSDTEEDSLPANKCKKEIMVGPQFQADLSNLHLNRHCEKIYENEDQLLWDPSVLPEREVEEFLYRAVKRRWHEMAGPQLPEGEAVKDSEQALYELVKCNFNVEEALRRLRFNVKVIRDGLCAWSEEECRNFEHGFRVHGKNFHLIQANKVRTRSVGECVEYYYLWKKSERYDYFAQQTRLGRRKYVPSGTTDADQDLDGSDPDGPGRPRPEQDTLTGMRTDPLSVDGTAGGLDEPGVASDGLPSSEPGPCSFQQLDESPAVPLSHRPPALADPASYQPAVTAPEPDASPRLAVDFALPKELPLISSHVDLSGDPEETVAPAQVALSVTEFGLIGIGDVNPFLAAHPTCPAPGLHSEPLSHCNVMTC
B5: DCC-interacting protein 13-alpha (Homo sapiens), Q9UKG1 (parent)
chain: MPGIDKLPIEETLEDSPQTRSLLGVFEEDATAISNYMNQLYQAMHRIYDAQNELSAATHLTSKLLKEYEKQRFPLGGDDEVMSSTLQQFSKVIDELSSCHAVLSTQLADAMMFPITQFKERDLKEILTLKEVFQIASNDHDAAINRYSRLSKKRENDKVKYEVTEDVYTSRKKQHQTMMHYFCALNTLQYKKKIALLEPLLGYMQAQISFFKMGSENLNEQLEEFLANIGTSVQNVRREMDSDIETMQQTIEDLEVASDPLYVPDPDPTKFPVNRNLTRKAGYLNARNKTGLVSSTWDRQFYFTQGGNLMSQARGDVAGGLAMDIDNCSVMAVDCEDRRYCFQITSFDGKKSSILQAESKKDHEEWICTINNISKQIYLSENPEETAARVNQSALEAVTPSPSFQQRHESLRPAAGQSRPPTARTSSSGSLGSESTNLAALSLDSLVAPDTPIQFDIISPVCEDQPGQAKAFGQGGRRTNPFGESGGSTKSETEDSILHQLFIVRFLGSMEVKSDDHPDVVYETMRQILAARAIHNIFRMTESHLLVTCDCLKLIDPQTQVTRLTFPLPCVVLYATHQENKRLFGFVLRTSSGRSESNLSSVCYIFESNNEGEKICDSVGLAKQIALHAELDRRASEKQKEIERVKEKQQKELNKQKQIEKDLEEQSRLIAASSRPNQASSEGQFVVLSSSQSEESDLGEGGKKRESEA

Variants of: B1
Details: with kr108_human KRTAP10-8, P60410

Row | effect of a mutation on the interaction | Variant
1 | with no effect | R8Q

Variants of: B2
Details: with amot_human AMOT

Row | effect of a mutation on the interaction | Variant
2 | with no effect | K218T

Variants of: B3
Details: with kifc3_human KIFC3, Q9BVG8

Row | effect of a mutation on the interaction | Variant
3 | with no effect | P11A

Variants of: B4
Details: with mier2_human MIER2, Q8N344

Row | effect of a mutation on the interaction | Variant
4 | with no effect | L199S

Variants of: B5
Details: with traf2_human TRAF2, Q12933
traf2_human TRAF2, Q12933, sequence (Q12933 whole entry): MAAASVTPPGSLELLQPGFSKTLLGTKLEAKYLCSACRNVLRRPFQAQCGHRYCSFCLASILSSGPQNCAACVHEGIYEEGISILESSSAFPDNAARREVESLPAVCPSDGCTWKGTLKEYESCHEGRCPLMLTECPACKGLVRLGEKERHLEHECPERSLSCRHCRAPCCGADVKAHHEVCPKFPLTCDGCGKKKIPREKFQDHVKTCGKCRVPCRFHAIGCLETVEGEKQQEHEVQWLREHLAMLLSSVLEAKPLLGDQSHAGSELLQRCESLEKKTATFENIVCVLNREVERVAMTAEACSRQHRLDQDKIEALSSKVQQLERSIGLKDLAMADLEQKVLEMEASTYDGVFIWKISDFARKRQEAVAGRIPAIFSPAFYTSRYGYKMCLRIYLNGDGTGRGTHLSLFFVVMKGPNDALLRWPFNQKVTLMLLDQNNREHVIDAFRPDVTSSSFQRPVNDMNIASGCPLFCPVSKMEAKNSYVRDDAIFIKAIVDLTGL

Row | effect of a mutation on the interaction | Variant
5 | with no effect | E67G

Variants of: B5
Details: with maga9_human MAGEA9, P43362
maga9_human MAGEA9, P43362, sequence (P43362 whole entry): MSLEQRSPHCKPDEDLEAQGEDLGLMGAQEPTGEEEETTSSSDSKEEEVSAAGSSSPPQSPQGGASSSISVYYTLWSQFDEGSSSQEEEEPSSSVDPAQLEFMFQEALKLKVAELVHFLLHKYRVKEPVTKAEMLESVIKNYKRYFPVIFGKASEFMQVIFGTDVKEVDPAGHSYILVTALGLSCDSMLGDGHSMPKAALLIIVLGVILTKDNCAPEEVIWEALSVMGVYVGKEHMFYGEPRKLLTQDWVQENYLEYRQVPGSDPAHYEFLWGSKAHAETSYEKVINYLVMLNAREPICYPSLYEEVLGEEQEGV

Row | effect of a mutation on the interaction | Variant
6 | with no effect | E67G
